# Like-named read-outs stand apart in the source and are kept apart here.
# T1: Recombinant Mouse IL-17A, Sino Biological, PBV10159R-010 (mouse, UniProt Q62386 26-158)
# T1 construct: also called murine IL-17A
# T1 sequence (looked up): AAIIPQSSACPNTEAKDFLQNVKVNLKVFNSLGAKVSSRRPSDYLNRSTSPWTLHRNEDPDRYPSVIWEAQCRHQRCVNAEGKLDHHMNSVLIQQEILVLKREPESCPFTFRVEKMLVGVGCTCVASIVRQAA
# T2: Recombinant rat IL-17A, ABGENT, PBV10154r (rat, UniProt Q61453 18-150, limits assumed)
# T2 sequence (looked up): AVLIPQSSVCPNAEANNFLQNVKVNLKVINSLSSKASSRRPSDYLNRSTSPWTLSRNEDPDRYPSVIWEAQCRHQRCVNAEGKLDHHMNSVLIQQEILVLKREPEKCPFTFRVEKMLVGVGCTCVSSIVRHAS
# T3: Recombinant human IL-17B, R&D, 8129-IL (human, UniProt Q9UHF5 21-180)
# T3 sequence (looked up): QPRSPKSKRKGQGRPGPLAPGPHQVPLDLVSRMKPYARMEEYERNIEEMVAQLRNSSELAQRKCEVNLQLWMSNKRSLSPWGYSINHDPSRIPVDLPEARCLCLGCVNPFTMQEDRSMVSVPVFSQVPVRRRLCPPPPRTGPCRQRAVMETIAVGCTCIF
# T4: Recombinant human IL-17D, Sino Biological, 10076-H08S (human, UniProt Q8TAD2 16-202)
# T4 sequence (looked up): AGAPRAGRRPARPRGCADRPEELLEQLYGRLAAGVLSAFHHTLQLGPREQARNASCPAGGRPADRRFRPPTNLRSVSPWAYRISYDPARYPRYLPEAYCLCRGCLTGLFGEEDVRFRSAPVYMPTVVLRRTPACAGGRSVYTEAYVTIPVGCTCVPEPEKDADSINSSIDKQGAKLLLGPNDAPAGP
# T5: Recombinant human IL-17E, ABGENT, PBV10154r (human, UniProt Q9H293 33-177, limits assumed)
# T5 construct: The catalogue number printed is the same as that printed for rat IL-17A; also called IL-25
# T5 sequence (looked up): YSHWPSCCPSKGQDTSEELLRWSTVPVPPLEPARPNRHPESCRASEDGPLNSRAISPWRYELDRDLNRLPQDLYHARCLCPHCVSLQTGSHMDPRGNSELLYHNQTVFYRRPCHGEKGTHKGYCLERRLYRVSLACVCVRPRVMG
# How the values were obtained:
# [1] = molecular target: T6, Recombinant Human IL-17A, Sino Biological, 12047-HNAS (human, UniProt Q16552 24-155); experiment: indirect ELISA, human IL-17A coated
# T6 construct: range 24-155; Bought recombinant protein; also called huIL-17A
# T6 sequence (Q16552 24-155 limits assumed, form in doubt): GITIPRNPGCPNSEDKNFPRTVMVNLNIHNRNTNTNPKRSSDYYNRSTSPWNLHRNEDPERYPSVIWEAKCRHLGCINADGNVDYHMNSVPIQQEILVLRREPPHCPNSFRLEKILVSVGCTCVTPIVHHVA
# [2] = molecular target: T6, Recombinant Human IL-17A, Sino …; experiment: indirect ELISA, human IL-17A coated; remark: listed apart in the source
# Description: (§1) Human IL-17A was formulated into a 1 μg/ml coating solution with CBS, and added to the ELISA plate at 50 μL/well, and the plate was coated at 2 to 8° C. for 12 hours or longer. The residue coating solution was discarded, 3% milk was added, 200 μL per well, and the plate was blocked at room temperature for 1 hour. Each well was washed with not less than 200 μL of PBST, and the hybridoma supernatant was diluted to 100 μg/ml, and was 10-fold diluted for 10 gradients, and added to the plate at 100 μL/well. […] After incubating for 1 hour at room temperature, each well was added with not less than 200 μL of PBST and washed 4 times, and patted to dryness. TMB development solution was added at 100 μL per well. After reacting for 5 minutes at room temperature, the reaction was quenched by adding 2M H₂SO₄ at 50 μL/well. After the reaction was quenched, the ELISA plate was placed on a microplate reader, and the absorbance OD450 value was read at a wavelength of 450 nm.
# [3] = molecular target: T1, Recombinant Mouse IL-17A, Sino …; experiment: indirect ELISA, mouse IL-17A coated
# Description: as §1
# [4] = molecular target: T6, Recombinant Human IL-17A, Sino …; experiment: indirect ELISA, human IL-17A coated; remark: listed apart in the source
# Description: as §1
# [5] = molecular target: T6, Recombinant Human IL-17A, Sino …; experiment: indirect ELISA, human IL-17A coated; remark: listed apart in the source
# Description: as §1
# [6] = molecular target: T2, Recombinant rat IL-17A, ABGENT, …; experiment: indirect ELISA, rat IL-17A coated
# [7] = molecular target: T3, Recombinant human IL-17B, R&D, 8129-IL; experiment: indirect ELISA, IL-17B coated at 1 µg/ml
# [8] = molecular target: T6, Recombinant Human IL-17A, Sino …; experiment: SPR (Biacore), antibody captured by anti-human antibody on the chip, IL-17A as analyte, 1:1 model
# Description: In this example, the antigen-antibody binding kinetics and affinity were determined using BIACORE method.
# Human Antibody Capture Antiboy was amino-coupled immobilized on the Sereis S Sensor Chip CMS chip using Amine Coupling Kit, anti-Human Capture-CMS chip. The chip was placed at room temperature for 20-30 mins, and loaded into the instrument. The antigen was diluted with equilibration buffer at an initial dilution of lOnM, and was diluted for 5 concentration gradients. 2 zero concentrations (i.e., equilibration buffer) and one repeat concentration (generally the lowest concentration repeat) were set. The antibody sample was diluted to the experimental working concentration with an equilibration buffer and sealed at 2-8° C.
# [9] = molecular target: T4, Recombinant human IL-17D, Sino …; experiment: indirect ELISA, IL-17D coated at 1 µg/ml
# Description: as §1
# [10] = molecular target: T6, Recombinant Human IL-17A, Sino …; experiment: cell-based or functional assay
# [11] = molecular target: T5, Recombinant human IL-17E, ABGENT, …; experiment: indirect ELISA, IL-17E coated at 1 µg/ml
# Description: as §1
# [12] = molecular target: T6, Recombinant Human IL-17A, Sino …; experiment: cell-based or functional assay; remark: listed apart in the source
# [13] = molecular target: T7, Recombinant Rhesus IL-17A, Sino Biological, 90306-KNAB (Rhesus, UniProt F6T3G5 24-155); experiment: indirect ELISA, Rhesus IL-17A coated
# T7 construct: also called macaque IL-17A
# T7 sequence (F6T3G5 entry or part of it): as the sequence (Q16552 24-155 limits assumed, form in doubt) above, with T3A, N17T, I77V, P104R counted along it
# [14] = molecular target: T6, Recombinant Human IL-17A, Sino …; experiment: indirect ELISA, human IL-17A coated; remark: listed apart in the source
# Description: as §1
# [15] = molecular target: T1, Recombinant Mouse IL-17A, Sino …; experiment: indirect ELISA, mouse IL-17A coated; remark: listed apart in the source
# Description: as §1
# [16] = molecular target: T6, Recombinant Human IL-17A, Sino …; experiment: indirect ELISA, human IL-17A coated, hybridoma supernatant
# Description: as §1
binder,measurement,setting,value
"humanized anti-IL-17A antibody HB0017 (antibody, human IgG1, V domains shown, also called HB0017 antibody; HBH17 antibody) VH: QVQLVQSGSELKKPGASVKVSCKASEYIFTNYGMNWVKQAPGQGFEWMGWIDTNTGEPTYAQGFTGRFVFSLDTSVSTAYLQISSLKAEDTATYYCANYGWGYFDYWGQGTTVTVSS VL: DVVMTQTPPSLPVNPGEPASISCRSSQSLVHSNGYTYLHWYLQKPGQSPQLLIYKVSNHLSGVPDRFSGSGSGTDFTLKISWVEAEDVGVYFCSQSTHVPYTFGGGTKLEIK",improvement of EC50 against the chimeric antibody,[1],~150%
same,improvement of EC50 against the original murine antibody,[1],~11.6 times
same,EC50,[2],0.0154 µg/mL
same,EC50,[3],0.075 µg/mL
same,EC50,[4],0.0154 µg/mL
same,EC50,[5],0.0154 µg/mL
same,EC50,[6],0.24 µg/mL
same,binding result,[7],no binding
same,Kd,[8],0.0198 nM
same,binding result,[9],no binding
same,biological activity (IL-6 release by HT1080 cells) against the positive control antibody,[10],~6 fold
same,binding result,[11],no binding
same,IC50 of IL-6 release by HT1080 cells stimulated with IL-17A and TNFα,[12],0.09 µg/mL
same,EC50,[13],0.088 µg/mL
"Chimeric antibody (mouse 7D6/5H8 VH and VL on human IgG1 and k constant regions) (antibody, V domains shown, Human IgG1 heavy chain constant region and human kappa light chain constant region; Expressed in CHO-K1 cells) VH: QIQLVQSGPELKKPGETVKISCKASEYIFTNYGMNWVKEAPGKAFKWMGWIDTNTGEPTYAEDFKGRFAFSLDSSATSAFLQISNLKDDDTGTYFCANYGWGYFDYWGQGTTLTVSS VL: DVVMTQTPLSLPVSLRDQASISCISSQSLVHSNGYTYLHWYLQKPGQSPKLLIYKVSNRFSGVPDRFSGSGSGTDFTLKISRVEAADLGVYFCSQSTHVPYTFGGGTKLEIK",EC50,[14],0.0386 µg/mL
same,EC50,[15],0.0392 µg/mL
"mouse anti-human IL-17A monoclonal antibody of hybridoma 7D6/5H8 (antibody, V domains shown, Mouse antibody from hybridoma supernatant; also called original murine antibody; IL17-HC1 / IL17-LC1) VH: QIQLVQSGPELKKPGETVKISCKASEYIFTNYGMNWVKEAPGKAFKWMGWIDTNTGEPTYAEDFKGRFAFSLDSSATSAFLQISNLKDDDTGTYFCANYGWGYFDYWGQGTTLTVSS VL: DVVMTQTPLSLPVSLRDQASISCISSQSLVHSNGYTYLHWYLQKPGQSPKLLIYKVSNRFSGVPDRFSGSGSGTDFTLKISRVEAADLGVYFCSQSTHVPYTFGGGTKLEIK",EC50,[16],0.194 µg/mL

# Source: patent US20200071394A1 (HUABO BIOPHARM SHANGHAI, published 2020)
